# Experimental data reported in patent US20250154287A1.
# Target: CD19 on B cells and plasma cells in PBMCs (human) (UniProt P15391)
# Experiment: cell-based or functional assay
# Chain of CD19 on B cells and plasma cells in PBMCs (human) (P15391 20-556): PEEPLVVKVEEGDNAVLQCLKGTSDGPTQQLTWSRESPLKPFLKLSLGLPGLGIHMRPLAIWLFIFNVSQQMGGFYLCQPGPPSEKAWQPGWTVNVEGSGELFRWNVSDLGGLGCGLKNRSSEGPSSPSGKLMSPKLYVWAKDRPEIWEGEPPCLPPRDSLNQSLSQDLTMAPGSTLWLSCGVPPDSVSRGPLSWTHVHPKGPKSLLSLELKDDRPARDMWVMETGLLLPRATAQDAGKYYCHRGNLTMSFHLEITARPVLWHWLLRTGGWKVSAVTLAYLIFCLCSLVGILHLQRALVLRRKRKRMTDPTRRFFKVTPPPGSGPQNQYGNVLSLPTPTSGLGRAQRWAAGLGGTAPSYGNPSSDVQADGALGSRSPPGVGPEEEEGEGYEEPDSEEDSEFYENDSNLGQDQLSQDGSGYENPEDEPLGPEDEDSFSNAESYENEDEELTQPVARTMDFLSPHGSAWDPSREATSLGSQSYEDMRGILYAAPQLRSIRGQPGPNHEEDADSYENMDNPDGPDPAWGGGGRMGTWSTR
substance,measurement,value
"CD19-CD3 scFv (InvivoGen, Cat number Bimab-cd19cd3-01)","EC50 (nM), cytotoxicity against IgA^+ CD20^+ B cells by flow cytometry",0.00325 nM
same,"EC50 (nM), reduction in secreted IgA in human PBMC supernatants",0.0368 nM
same,"Top (MFI) as printed, cytotoxicity against IgA^+ CD20^+ B cells by flow cytometry",92.8
same,reduction of secreted IgA in PBMC supernatants (IgA ELISA),57%
